For assay [1], the target named is lactate dehydrogenase (LDH). Put plainly: phage ELISA, 405 nm; LDH coated.
Assay [2] deals with lactate dehydrogenase (LDH). Put plainly: phage ELISA; LDH coated. Background: An ELISA detects its analyte on a solid surface through an enzyme-linked reagent.
In assay [3] the target is antibody raised against ETAG. Put plainly: phage ELISA, 405 nm; anti-E-tag antibody coated.
Assay [4] has as its target DGI-2 polypeptide (UniProt Q15004). Put plainly: phage ELISA, 405 nm; DGI-2 coated.
Assay [5] shares this target. As to the kind of experiment: phage ELISA, 405 nm; DGI-2 signal over LDH signal.
For assay [6] the target is unchanged. Put plainly: phage ELISA.

The values that follow come from US7056679.

DGI-2 polypeptide, sequence (Q15004 whole entry): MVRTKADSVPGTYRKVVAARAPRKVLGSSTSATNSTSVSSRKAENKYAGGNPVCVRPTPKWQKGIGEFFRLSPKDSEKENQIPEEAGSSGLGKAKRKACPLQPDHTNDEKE

B1: DGI-2-40F-3-B4 (peptide, not shown: large carriers)
peptide: LWLPCGLLVRPAQFYFYFSPLRHFLSSSVGSLSFPLSLLVAAAGAPVPYPDPLEPRP
In assay [1], B1 displayed an LDH (OD) of 0.8 OD.

On to FLLQDFIMDAGSFVKPIGVGGAPVPYPDPLEPR (peptide, not shown: large carriers) [DGI9-20M-4-A414], for which, in assay [2], the LDH (ratio over background) was determined as 1.1.

In assay [3], DYKGRTMTSPIMSALPVYDRLHGAIGSRGQNMDAAAGAPVPYPDPLEPRP (peptide, not shown: large carriers) [DGI-2-20C-3-B3] returned an ETAG (OD) of 7.7 OD. For the same molecule, the DGI-2 (OD) in the assay with DGI-2 polypeptide [4] came to 0.8 OD. Also, in assay [1], the LDH (OD) was determined as 0.9 OD. For the same molecule, the DGI-2/LDH (OD) with DGI-2 polypeptide [5] came to 0.9.

With MAGFRGSGLSGYSEARLPRVGAPVPYPDPLEPR (peptide, not shown: large carriers) [DGI9-20M-4-E3], the LDH (ratio over background) in assay [2] is 1.

For WFTHVVEKFAAAGAPVPYPDPLEPRP (peptide, not shown: large carriers) [DGI-2-40F-3-A4], the ETAG (OD) in assay [3] stood at 6.7 OD. For the same molecule, the DGI-2 (OD) in the assay with DGI-2 polypeptide [4] turned out to be 1.1 OD. For the same molecule, the LDH (OD) in assay [1] was 0.8 OD. For the same molecule, the DGI-2/LDH (OD) with DGI-2 polypeptide [5] turned out to be 1.3.

Regarding GEVDCVYALTHRFLSPQVQYHHRPVAAAGAPVPYPDPLEPRP (peptide, not shown: large carriers) [DGI-2-20C-3-A12], the ETAG (OD) in assay [3] was determined as 8.1 OD. In the assay with DGI-2 polypeptide [4], this molecule returned a DGI-2 (OD) of 0.9 OD. This molecule also came in with an LDH (OD) in assay [1] of 0.9 OD. This molecule showed a DGI-2/LDH (OD) with DGI-2 polypeptide [5] of 1.

Turning to WDWSRFGAQLRGAILGRATGGAPVPYPDPLEPR (peptide, not shown: large carriers) [DGI9-20M-4-A627], in assay [2], the LDH (ratio over background) was found to be 0.9.

For SRLALSSQHGLSLVAGRRRGGAPVPYPDPLEPR (peptide, not shown: large carriers) [DGI9-20M-4-A12], the LDH (ratio over background) in assay [2] is 0.9.

B2: DGI-2-40F-3-C10 (peptide, not shown: large carriers)
peptide: WRARSSGYLFALTPNFGVPHPSSALRRMHGLMARDLRPVAAAGAPVPYPDPLEPRP
Take B2: the ETAG (OD) in assay [3] stood at 7.7 OD. Also, in the assay with DGI-2 polypeptide [4], the DGI-2 (OD) turned out to be 1.1 OD. The molecule further registered an LDH (OD) in assay [1] of 0.9 OD. For the same molecule, the DGI-2/LDH (OD) in the assay with DGI-2 polypeptide [5] came out at 1.3.

B3: DGI-2-40F-3-A8 (peptide, not shown: large carriers)
peptide: GQISLAGVAVCSSERMLLAFSSRVFLPGLKVPVTTSQRGSAAAGAPVPYPDPLEPRP
With B3, in assay [1], the LDH (OD) is 0.8 OD.

B4: DGI-2-40F-3-A7 (peptide, not shown: large carriers)
peptide: CAYRWGLFRGPGRVDYDLQVVGIMMWPGPIPDRSSRGSVAAAAGAPVPYPDPLEPRP
B4 showed an LDH (OD) in assay [1] of 0.8 OD.

B5: DGI-2-40F-3-D1 (peptide, not shown: large carriers)
peptide: MGQGFHYNRQPYMSHQCYAFTFSTPFLDGDRIPHGVSRGLAAAGAPVPYPDPLEPRP
For the molecule B5, in assay [1], the LDH (OD) was determined as 0.8 OD.

B6: DGI-2-40F-3-B6 (peptide, not shown: large carriers)
peptide: QSNVWVLVGVIMQGVWYQRQHYCVYVMLLSDQVSVLLAVAAAAGAPVPYPDPLEPRP
In turn, B6 yielded an LDH (OD) in assay [1] of 0.8 OD.

B7: DGI-2-40F-3-B1 (peptide, not shown: large carriers)
peptide: HGTRLRGVDYVMTWAGWQGYSSRKHVQQAVAGSSPGSDELAAAGAPVPYPDPLEPRP
With B7, the LDH (OD) in assay [1] turned out to be 0.7 OD.

B8: DGI-2-40F-3-D3 (peptide, not shown: large carriers)
peptide: VQFAMTLSSRLWQHARHPLTDDAPPTVSFGTRRETLAGKAAAAGAPVPYPDPLEPRP
As to B8, in assay [1], the LDH (OD) stood at 0.9 OD.

B9: DGI-2-40F-4-E1130 (peptide, not shown: large carriers)
peptide: VCRLCRLCRFSMRCGGLSLVLGSAAAFFCEVFVGFCVAAAGAPVPYPDPLEPRP
Turning to B9, the ETAG (OD) in assay [3] was determined as 8.3 OD. This molecule gave a DGI-2 (OD) with DGI-2 polypeptide [4] of 2.9 OD. Also, the LDH (OD) in assay [1] was found to be 0.9 OD. In the assay with DGI-2 polypeptide [5], this molecule returned a DGI-2/LDH (OD) of 3.2.

B10: DGI-2-40F-3-A1 (SEQ ID NO: 187) (peptide, not shown: large carriers)
peptide: QYFARGSFQFGLSHVLSAAAAFHLYVFCKRLSRGFGIKDDAAAGAPVPYPDPLEPRP
Regarding B10, in assay [1], the LDH (OD) was determined as 0.7 OD.

In the case of GRAGTSMTELVAWGFVQRVGAAAGAPVPYPDPLEPRP [DGI-2-20F-PP-H10], in the assay with DGI-2 polypeptide [6], the DGI-2 (OD) stood at 1.4 OD and the DGI-2/LDH amounted to 1.9.

As to LGNASSLIPFLRSVQESGVRAAAGAPVPYPDPLEPRP (peptide, not shown: large carriers) [DGI-2-20F-3-C5], the ETAG (OD) in assay [3] was 17.7 OD. This molecule also gave a DGI-2 (OD) with DGI-2 polypeptide [4] of 1 OD. In assay [1], this molecule came in with an LDH (OD) of 0.9 OD. This molecule also displayed a DGI-2/LDH (OD) with DGI-2 polypeptide [5] of 1.

B11: DGI-2-40F-3-A12 (peptide, not shown: large carriers)
peptide: RRTQPAYRSGADDRTSGFYCYVTSALSAGAWMPFLPRRLAAAAGAPVPYPDPLEPRP
B11: the LDH (OD) in assay [1] worked out at 0.8 OD.
